Assay [1] addresses Myc-Vps34/PtdIns3K (Myc-tagged hVps34) (human, UniProt Q8NEB9 1-887). The assay can be described thus: cell-based or functional assay.
The target of assay [2] is T1, Rubicon-EGFP (full-length mouse Rubicon tagged with EGFP at the C-terminus) (mouse, UniProt Q80U62 1-956).
T1 construct: also called EGFP-tagged Rubicon; GFP-tagged full-length Rubicon; not shown: EGFP tag at the C-terminus (pEGFP-N3 vector)
T1 sequence: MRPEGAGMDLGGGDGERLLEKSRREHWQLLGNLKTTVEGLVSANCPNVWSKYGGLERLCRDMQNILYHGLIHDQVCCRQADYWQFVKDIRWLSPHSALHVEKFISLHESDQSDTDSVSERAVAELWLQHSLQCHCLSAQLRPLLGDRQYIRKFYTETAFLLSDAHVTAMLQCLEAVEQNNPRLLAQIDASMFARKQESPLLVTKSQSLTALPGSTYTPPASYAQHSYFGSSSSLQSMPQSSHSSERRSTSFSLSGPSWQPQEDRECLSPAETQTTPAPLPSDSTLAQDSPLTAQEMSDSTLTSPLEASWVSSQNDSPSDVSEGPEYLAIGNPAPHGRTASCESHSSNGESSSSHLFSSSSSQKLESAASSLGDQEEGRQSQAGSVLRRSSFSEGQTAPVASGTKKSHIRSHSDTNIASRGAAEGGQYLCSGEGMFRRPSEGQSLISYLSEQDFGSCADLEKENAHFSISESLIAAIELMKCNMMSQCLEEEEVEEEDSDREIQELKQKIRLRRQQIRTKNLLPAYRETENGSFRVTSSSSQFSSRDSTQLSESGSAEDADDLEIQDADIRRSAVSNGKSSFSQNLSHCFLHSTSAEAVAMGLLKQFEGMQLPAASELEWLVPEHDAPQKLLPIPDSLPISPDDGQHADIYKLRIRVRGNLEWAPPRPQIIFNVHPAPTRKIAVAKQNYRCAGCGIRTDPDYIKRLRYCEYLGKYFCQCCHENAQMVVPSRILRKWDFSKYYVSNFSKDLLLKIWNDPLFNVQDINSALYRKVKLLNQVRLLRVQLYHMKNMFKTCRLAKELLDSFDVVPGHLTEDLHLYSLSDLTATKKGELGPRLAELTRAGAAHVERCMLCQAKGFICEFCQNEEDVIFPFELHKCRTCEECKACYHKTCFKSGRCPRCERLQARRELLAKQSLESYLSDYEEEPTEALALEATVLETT
As to the kind of experiment: co-IP with anti-GFP antibody from co-transfected HEK 293T cells, anti-FLAG blot. From the text: (§1) FIG. 2A-E. Mapping of the binding domains that mediate the interaction between Beclin 1 and ATG14L/Rubicon. (A) Schematic representations of Beclin 1, ATG14L and Rubicon domain structures and the construction of multiple deletion mutants. The Beclin 1 mutants were tagged with FLAG at N-termini. The ATG14L or Rubicon mutants were tagged with EGFP at C-termini. (B) and (C) Domain mapping in Beclin 1 sequence required for binding ATG14L or Rubicon. HEK 293T cells were co-transfected with FLAG-tagged Beclin 1 mutant constructs and GFP-tagged full-length ATG14L […]. The immunoprecipitation was performed with anti-GFP antibody, followed by Western blotting with anti-FLAG antibody.
(§2) DNA plasmids were transfected into HEK 293T cells for immunoprecipitation. For Co-immunoprecipitation experiments, two or three plasmids were transfected simultaneously in equal amount. Cells were lysed in immunoprecipitation lysis buffer (20 mM HEPES, pH7.4/1 mM MgCl2/0.25 mM CaCl2/0.2% Triton X-100/150 mM NaCl/protease inhibitor and PMSF-pepstatin/DNaseI). For immunoprecipitation with GFP, ATG14L or Rubicon antibody, Dynabeads M-270 E-proxy (Invitrogen, Carlsbad, Calif.) were conjugated with each antibody, and incubated with cell lysate at 4° C. for 2 hours. After the beads were washed in ATG14L or Rubicon lysis buffer for 5 times, proteins were eluted by incubating beads in elution buffer (0.5 mM EDTA, pH8/0.5N NH₃.H₂O) at room temperature for 20 minutes and dried with vacuum speed centrifuge. For FLAG-tagged protein IP, Anti-FLAG M2 affinity resin (Sigma, St Louis, Mo.) was used and the manufacture's protocol was followed.

Assay [3] has as its target T2, ATG14L-EGFP (full-length mouse ATG14L tagged with EGFP at the C-terminus) (mouse, UniProt Q8CDJ3 1-492).
T2 construct: Mouse cDNA cloned into pEGFP-N3 and expressed in HEK 293/293T or HeLa cells; also called EGFP-tagged ATG14L; GFP-tagged full-length ATG14L; not shown: EGFP tag at the C-terminus (pEGFP-N3 vector)
The assay is described as above.
Excerpt: as §1, §2

Assay [4] concerns the target T2, ATG14L-EGFP (full-length mouse ATG14L …). As to the kind of experiment: co-IP with anti-GFP antibody from co-transfected HEK 293T cells (FIG. 11).
Assay [5] concerns the target T1, Rubicon-EGFP (full-length mouse Rubicon …). The assay is described as above.
Assay [6] addresses T3, ATG14L (endogenous, mouse tissue or NIH 3T3 cells) (mouse, UniProt Q8CDJ3 1-492).
T3 construct: also called BISC
The assay can be described thus: co-IP of endogenous proteins with anti-ATG14L antibody from NIH 3T3 cell lysates, Western blot. On the technique in general: A western blot detects proteins with antibodies after separation by electrophoresis.

Assay [7] has as its target T2, ATG14L-EGFP (full-length mouse ATG14L …). As to the kind of experiment: co-IP with anti-GFP antibody from co-transfected HEK 293T cells; anti-FLAG blot.
Excerpt: as §1
DNA plasmids were transfected into HEK 293T cells for immunoprecipitation. For Co-immunoprecipitation experiments, two or three plasmids were transfected simultaneously in equal amount. Cells were lysed in immunoprecipitation lysis buffer (20 mM HEPES, pH7.4/1 mM MgCl2/0.25 mM CaCl2/0.2% Triton X-100/150 mM NaCl/protease inhibitor and PMSF-pepstatin/DNaseI). For immunoprecipitation with GFP, ATG14L or Rubicon antibody, Dynabeads M-270 E-proxy (Invitrogen, Carlsbad, Calif.) were conjugated with each antibody, and incubated with cell lysate at 4° C. for 2 hours. […]

Sequence of Myc-Vps34/PtdIns3K (Myc-tagged hVps34) (Q8NEB9 whole entry): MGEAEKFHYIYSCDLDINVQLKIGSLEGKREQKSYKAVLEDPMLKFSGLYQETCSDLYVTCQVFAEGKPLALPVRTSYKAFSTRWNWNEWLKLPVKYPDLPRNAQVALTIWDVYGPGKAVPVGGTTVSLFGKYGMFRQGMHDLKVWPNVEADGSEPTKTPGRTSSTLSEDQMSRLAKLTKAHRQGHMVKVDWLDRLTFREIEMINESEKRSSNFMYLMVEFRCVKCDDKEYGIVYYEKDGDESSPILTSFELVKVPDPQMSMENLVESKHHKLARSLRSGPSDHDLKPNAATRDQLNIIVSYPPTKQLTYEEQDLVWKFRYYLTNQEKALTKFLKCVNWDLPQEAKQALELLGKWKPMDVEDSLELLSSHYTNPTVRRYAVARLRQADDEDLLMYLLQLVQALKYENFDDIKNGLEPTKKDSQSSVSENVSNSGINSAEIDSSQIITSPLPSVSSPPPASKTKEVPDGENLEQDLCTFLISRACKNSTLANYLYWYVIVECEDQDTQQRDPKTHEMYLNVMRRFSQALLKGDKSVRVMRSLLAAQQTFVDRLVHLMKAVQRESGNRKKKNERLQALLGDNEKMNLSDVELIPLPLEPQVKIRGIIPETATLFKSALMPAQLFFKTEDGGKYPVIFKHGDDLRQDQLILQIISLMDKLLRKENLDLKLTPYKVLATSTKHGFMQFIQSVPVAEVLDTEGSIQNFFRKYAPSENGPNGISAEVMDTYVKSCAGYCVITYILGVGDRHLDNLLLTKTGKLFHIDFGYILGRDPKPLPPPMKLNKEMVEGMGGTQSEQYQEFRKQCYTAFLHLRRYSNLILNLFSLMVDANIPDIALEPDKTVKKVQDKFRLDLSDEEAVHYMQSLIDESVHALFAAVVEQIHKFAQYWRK

B1: FLAG-Rubicon (mouse Rubicon tagged with FLAG at the N-terminus) (other, not shown: small tags and cut ends)
chain: MRPEGAGMDLGGGDGERLLEKSRREHWQLLGNLKTTVEGLVSANCPNVWSKYGGLERLCRDMQNILYHGLIHDQVCCRQADYWQFVKDIRWLSPHSALHVEKFISLHESDQSDTDSVSERAVAELWLQHSLQCHCLSAQLRPLLGDRQYIRKFYTETAFLLSDAHVTAMLQCLEAVEQNNPRLLAQIDASMFARKQESPLLVTKSQSLTALPGSTYTPPASYAQHSYFGSSSSLQSMPQSSHSSERRSTSFSLSGPSWQPQEDRECLSPAETQTTPAPLPSDSTLAQDSPLTAQEMSDSTLTSPLEASWVSSQNDSPSDVSEGPEYLAIGNPAPHGRTASCESHSSNGESSSSHLFSSSSSQKLESAASSLGDQEEGRQSQAGSVLRRSSFSEGQTAPVASGTKKSHIRSHSDTNIASRGAAEGGQYLCSGEGMFRRPSEGQSLISYLSEQDFGSCADLEKENAHFSISESLIAAIELMKCNMMSQCLEEEEVEEEDSDREIQELKQKIRLRRQQIRTKNLLPAYRETENGSFRVTSSSSQFSSRDSTQLSESGSAEDADDLEIQDADIRRSAVSNGKSSFSQNLSHCFLHSTSAEAVAMGLLKQFEGMQLPAASELEWLVPEHDAPQKLLPIPDSLPISPDDGQHADIYKLRIRVRGNLEWAPPRPQIIFNVHPAPTRKIAVAKQNYRCAGCGIRTDPDYIKRLRYCEYLGKYFCQCCHENAQMVVPSRILRKWDFSKYYVSNFSKDLLLKIWNDPLFNVQDINSALYRKVKLLNQVRLLRVQLYHMKNMFKTCRLAKELLDSFDVVPGHLTEDLHLYSLSDLTATKKGELGPRLAELTRAGAAHVERCMLCQAKGFICEFCQNEEDVIFPFELHKCRTCEECKACYHKTCFKSGRCPRCERLQARRELLAKQSLESYLSDYEEEPTEALALEATVLETT
With B1, the “Vps34 kinase activity (radioactive PtdIns(3)P normalized against immunoprecipitated Myc-tagged Vps34), over-expressed Rubicon against empty vector, in the absence of Beclin 1” value in assay [1] amounted to 0.58 ratio.

B2: FLAG-ATG14L (mouse ATG14L tagged with FLAG at the N-terminus) (other, not shown: small tags and cut ends)
chain: MASPSGKGSWTPEAPGFGPRALARDLVDSVDDAEGLYVAVERCPLCNTTRRRLTCAKCVQSGDFVYFDGRDRERFIDKKERLSQLKNKQEEFQKEVLKAMEGKRLTDQLRWKIMSCKMRIEQLKQTICKGNEEMKKNSEGLLKNKEKNQKLYSRAQRHQEKKEKIQRHNRKLGDLVEKKTIDLKSHYERLARLRRSHILELTSIIFPIDEVKTSGRDPADVSSETDSAMTSSMVSKLAEARRTTYLSGRWVCDDHNGDTSISITGPWISLPNNGDYSAYYNWVEEKKTTQGPDMEHNNPAYTISAALGYATQLVNIVSHILDINLPKKLCNSEFCGENLSKQKLTRAVRKLNANILYLCSSQHVNLDQLQPLHTLRNLMHLVSPRSEHLGRSGPFEVRADLEESMEFVDPGVAGESDASGDERVSDEETDLGTDWENLPSPRFCDIPSQPVEVSQSQSTQVSPPIASSSAGGMISSAAASVTSWFKAYTGHR
As to B2, the “Vps34 kinase activity (radioactive PtdIns(3)P normalized against immunoprecipitated Myc-tagged Vps34), over-expressed ATG14L against empty vector, in the presence of Beclin 1” value in assay [1] worked out at 2.5 ratio.

B3: FLAG-Beclin 1 BC (Bcl2-binding domain and Coiled-coil domain) (other)
chain: MEGSKASSSTMQVSFVCQRCSQPLKLDTSFKILDRVTIQELTAPLLTTAQAKPGETQEEEANSGEEPFIETRQDGVSRRFIPPARMMSTESANSFTLIGEASDGGTMENLSRRLKVTGDLFDIMSGQTDVDHPLCEECTDTLLDQLDTQLNVTENECQNYKRCLEILEQMNEDDSEQLQRELKELALEEERLIQELEDVEKNRKVVAENLEKVQAEAERLDQEEAQYQREYSEFKRQQLELDDELKSVENQVRYAQIQLDKLKKTNVFN
notes: also called FLAG-BC; not shown: FLAG tag at the N-terminus (pCMV-FLAG2 vector)
B3: the binding result in assay [2] is “no binding”.

B4: FLAG-Beclin 1 BD domain (aa 1-150) (other)
chain: MEGSKASSSTMQVSFVCQRCSQPLKLDTSFKILDRVTIQELTAPLLTTAQAKPGETQEEEANSGEEPFIETRQDGVSRRFIPPARMMSTESANSFTLIGEASDGGTMENLSRRLKVTGDLFDIMSGQTDVDHPLCEECTDTLLDQLDTQL
notes: not shown: FLAG tag at the N-terminus (pCMV-FLAG2 vector)
As for B4, the binding result in assay [3] and in assay [2] was “no binding” each time.

B5: Beclin 1-AsRed (other)
chain: MEGSKASSSTMQVSFVCQRCSQPLKLDTSFKILDRVTIQELTAPLLTTAQAKPGETQEEEANSGEEPFIETRQDGVSRRFIPPARMMSTESANSFTLIGEASDGGTMENLSRRLKVTGDLFDIMSGQTDVDHPLCEECTDTLLDQLDTQLNVTENECQNYKRCLEILEQMNEDDSEQLQRELKELALEEERLIQELEDVEKNRKVVAENLEKVQAEAERLDQEEAQYQREYSEFKRQQLELDDELKSVENQVRYAQIQLDKLKKTNVFNATFHIWHSGQFGTINNFRLGRLPSVPVEWNEINAAWGQTVLLLHALANKMGLKFQRYRLVPYGNHSYLESLTDKSKELPLYCSGGLRFFWDNKFDHAMVAFLDCVQQFKEEVEKGETRFCLPYRMDVEKGKIEDTGGSGGSYSIKTQFNSEEQWTKALKFMLTNLKWGLAWVSSQFYNK
notes: Beclin 1 cDNA from mouse brain cloned into pAs-Red; not shown: AsRed fluorescent protein tag (pAs-Red vector)
On to B5, for which the binding result in assay [4] and in assay [5] was “binds” in each case.

B6: endogenous Beclin 1 of NIH 3T3 cells / mouse tissue (other)
chain: MEGSKASSSTMQVSFVCQRCSQPLKLDTSFKILDRVTIQELTAPLLTTAQAKPGETQEEEANSGEEPFIETRQDGVSRRFIPPARMMSTESANSFTLIGEASDGGTMENLSRRLKVTGDLFDIMSGQTDVDHPLCEECTDTLLDQLDTQLNVTENECQNYKRCLEILEQMNEDDSEQLQRELKELALEEERLIQELEDVEKNRKVVAENLEKVQAEAERLDQEEAQYQREYSEFKRQQLELDDELKSVENQVRYAQIQLDKLKKTNVFNATFHIWHSGQFGTINNFRLGRLPSVPVEWNEINAAWGQTVLLLHALANKMGLKFQRYRLVPYGNHSYLESLTDKSKELPLYCSGGLRFFWDNKFDHAMVAFLDCVQQFKEEVEKGETRFCLPYRMDVEKGKIEDTGGSGGSYSIKTQFNSEEQWTKALKFMLTNLKWGLAWVSSQFYNK
notes: NIH 3T3 is a mouse cell line (inference)
Consider B6, for which, in assay [6], the binding result is “binds”.

B7: FLAG-Beclin 1 ECD domain (aa 244-448) (other)
chain: ELKSVENQVRYAQIQLDKLKKTNVFNATFHIWHSGQFGTINNFRLGRLPSVPVEWNEINAAWGQTVLLLHALANKMGLKFQRYRLVPYGNHSYLESLTDKSKELPLYCSGGLRFFWDNKFDHAMVAFLDCVQQFKEEVEKGETRFCLPYRMDVEKGKIEDTGGSGGSYSIKTQFNSEEQWTKALKFMLTNLKWGLAWVSSQFYNK
notes: also called E (Evolutionarily conserved domain); FLAG-E; not shown: FLAG tag at the N-terminus (pCMV-FLAG2 vector)
Consider B7, for which the binding result in assay [3] and in assay [2] was “no binding” each time.

B8: FLAG-Beclin 1 CCD domain (aa 144-269) (other)
chain: DQLDTQLNVTENECQNYKRCLEILEQMNEDDSEQLQRELKELALEEERLIQELEDVEKNRKVVAENLEKVQAEAERLDQEEAQYQREYSEFKRQQLELDDELKSVENQVRYAQIQLDKLKKTNVFN
notes: aa 144-269 is printed for the CCD domain of Beclin 1; also called C (Coiled-coil domain); FLAG-C; not shown: FLAG tag at the N-terminus (pCMV-FLAG2 vector)
In the case of B8, the binding result is on record as “no binding” in assay [2] and “binds” in assay [7].

For the origin of these results see patent publication US20120041175A1 (ROCKEFELLER UNIVERISTY, published 2012).
